For orientation: EC50 means the midpoint of the concentration-response curve. A higher EC50 goes with a less potent agent.

Assay [1] concerns the target T1, Human FAP expressed on the cell surface (WI38, CHO-FAP1.9, U87MG cells) (human, UniProt Q12884 1-760).
T1 construct: whole, on cells; Endogenous on WI38 and U87MG cells; from a human FAP cDNA (OriGene) in CHO-FAP1.9 cells; also called hFAP; FAP+ cells
T1 sequence (looked up): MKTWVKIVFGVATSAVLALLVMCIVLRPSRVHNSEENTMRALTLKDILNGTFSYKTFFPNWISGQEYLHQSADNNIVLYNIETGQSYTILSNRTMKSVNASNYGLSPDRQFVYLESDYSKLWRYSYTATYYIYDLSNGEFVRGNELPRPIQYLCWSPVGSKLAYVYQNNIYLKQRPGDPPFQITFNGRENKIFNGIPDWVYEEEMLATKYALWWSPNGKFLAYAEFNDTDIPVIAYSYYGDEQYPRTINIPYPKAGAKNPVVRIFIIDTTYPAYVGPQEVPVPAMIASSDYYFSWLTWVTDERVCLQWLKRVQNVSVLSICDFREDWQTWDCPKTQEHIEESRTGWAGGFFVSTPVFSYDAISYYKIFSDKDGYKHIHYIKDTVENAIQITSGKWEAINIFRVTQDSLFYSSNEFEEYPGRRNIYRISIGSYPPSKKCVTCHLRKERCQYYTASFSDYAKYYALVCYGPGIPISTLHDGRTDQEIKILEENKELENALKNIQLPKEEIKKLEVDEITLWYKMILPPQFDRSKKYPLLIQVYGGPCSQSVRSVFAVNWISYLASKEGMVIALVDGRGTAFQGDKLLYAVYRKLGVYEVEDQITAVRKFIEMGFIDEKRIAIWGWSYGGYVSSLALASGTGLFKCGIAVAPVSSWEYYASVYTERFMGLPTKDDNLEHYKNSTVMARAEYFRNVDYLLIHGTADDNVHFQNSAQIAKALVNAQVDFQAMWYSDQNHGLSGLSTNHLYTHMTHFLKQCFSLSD
Nature of the assay: FACS on CHO-FAP1.9 cells (human FAP transfectants).

Assay [2] deals with T2, Recombinant human FAP (fibroblast activation protein) (human, UniProt Q12884 26-760).
T2 sequence (looked up): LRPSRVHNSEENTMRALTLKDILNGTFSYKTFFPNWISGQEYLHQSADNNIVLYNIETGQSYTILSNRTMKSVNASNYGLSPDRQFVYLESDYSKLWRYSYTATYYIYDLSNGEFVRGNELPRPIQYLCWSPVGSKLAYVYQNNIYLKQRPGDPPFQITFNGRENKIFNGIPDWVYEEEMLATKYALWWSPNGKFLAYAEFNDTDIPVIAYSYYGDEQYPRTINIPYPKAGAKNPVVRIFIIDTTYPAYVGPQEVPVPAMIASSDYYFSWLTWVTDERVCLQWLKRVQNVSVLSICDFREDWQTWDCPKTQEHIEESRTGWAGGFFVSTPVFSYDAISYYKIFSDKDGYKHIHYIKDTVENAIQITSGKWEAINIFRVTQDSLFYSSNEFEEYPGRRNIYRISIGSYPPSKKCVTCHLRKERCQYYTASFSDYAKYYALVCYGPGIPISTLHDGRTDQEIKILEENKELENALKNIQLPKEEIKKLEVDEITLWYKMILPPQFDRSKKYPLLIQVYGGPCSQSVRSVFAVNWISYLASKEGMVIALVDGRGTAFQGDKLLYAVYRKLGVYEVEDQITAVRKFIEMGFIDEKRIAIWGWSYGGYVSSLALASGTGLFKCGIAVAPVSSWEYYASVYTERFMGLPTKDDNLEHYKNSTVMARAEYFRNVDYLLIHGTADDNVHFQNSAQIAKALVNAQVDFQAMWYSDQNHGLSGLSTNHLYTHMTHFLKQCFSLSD
The assay is described as follows: cell-based or functional assay.

For assay [3], the target named is T1, Human FAP expressed on the cell surface …. The assay is described as follows: FACS on WI38 cells. Here is the method:
Using multi-well plates, 20,000 WI38 cells were added per well in 50 μl of PBS. 50 μl of appropriate dilutions (2× dilution steps) of ankyrin repeat protein was then added to the cells and incubated for 30 minutes on ice. After the ankyrin repeat protein-binding reaction, cells were washed twice with PBS. Direct immunofluorescent detection of the His-tagged ankyrin repeat proteins using Penta-His AF647 conjugate (QIAgen) and determination of live cells using LIVE/DEAD™ Fixable Green Dead Cell Stain Kit (ThermoFisher) were then performed together in one step. The Penta-His AF647 conjugate and the LIVE/DEAD™ Fixable Green dye were applied to the cells together in 1/200 (Penta-His) and 1/1000 (LID Fixable) final dilutions and incubated for 20-30 minutes on ice. After washing the cells with PBS, cells were re-suspended in 1× CellFix™ buffer (BD Biosciences) (10× stock was diluted 1/10 in water). […] Acquisition and FACS analysis, including the determination of median fluorescence intensity (MFI), were done within 5 days after staining using an AttuneNxT instrument. […]
Similarly, binding of the engineered ankyrin repeat proteins, i.e. DARPin® protein #34 and DARPin® protein #35, to FAP-expressing WI38 cells was also tested essentially as described above. Fold increase MFI was calculated by dividing the sample MFI by the MFI of the background control. […]

For assay [4] the target is unchanged. Nature of the assay: FACS on FAP-expressing WI38 cells, Penta-His AF647 detection. The method, boiled down:
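WI38 cells (20,000/well) incubated 30 min on ice with 2-fold dilutions of His-tagged ankyrin repeat proteins, washed, stained with Penta-His AF647 plus live/dead dye, fixed. Median fluorescence by flow cytometry; EC50 from non-linear regression of binding curves.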

B1: DARPin® protein #34 (designed binder)
chain: MRGSHHHHHHGSDLGKKLLEAARAGQDDEVRELLKAGADVNAKDVLGWTPLHLAAFEGHLEIVEVLLKAGADVNAKDKKGWTPLQLAARTGHLEIVEVLLKAGADVNAKDHIGATPLHLAAWQGHPEIVEVLLKAGADVNAQDKSGKTPADLAADAGHEDIAEVLQKAA
For the molecule B1, the EC50 in assay [1] turned out to be 1190 pM; in assay [3], 736 pM. Also, the “FAP activity (%)” value in assay [2] stood at 93%.

B2: DARPin® protein #36 (designed binder)
chain: MRGSHHHHHHGSDLGKKLLEAARAGQDDEVRILLAAGADVNAKDVLGWTPLHLAAFEGHLEIVEVLLKAGADVNAKDKKGWTPLQLAARTGHLEIVEVLLKAGADVNAKDHIGATPLHLAAWQGHPEIVEVLLKAGADVNAQDKSGKTPADLAADAGHEDIAEVLQKLN
Regarding B2, the EC50 in assay [4] was 235 pM.

B3: DARPin® protein #35 (designed binder)
chain: MRGSHHHHHHGSDLGEKLLVAALYGQDDEVRELLKAGADVNAKDQWGLTPLHKAALQGHLEIVEVLLKAGADVNAKDERGHTPLHWAARFGHLEIVEVLLKAGADVNAQDQKGYTPADLAALWGHEDIAEVLQKAA
Consider B3, for which the EC50 is 2020 pM in assay [1] and 994 pM in assay [3]. In assay [2], the “FAP activity (%)” value amounted to 90%.

B4: DARPin® protein #37 (designed binder)
chain: MRGSHHHHHHGSDLGEKLLVAALYGQDDEVRILLAAGADVNAKDQWGLTPLHKAALQGHLEIVEVLLKAGADVNAKDERGHTPLHWAARFGHLEIVEVLLKAGADVNAQDQKGYTPADLAALWGHEDIAEVLQKLN
As for B4, in assay [4], a half-maximal response (EC50) required 118 pM.

B5: DARPin® protein #39 (designed binder)
chain: MRGSHHHHHHGSDLGKKLLEAARAGQDDEVRELLKAGADVNAKDEWGKTPLHLAAIRGHLEIVEVLLKAGADVNAKDTHGITPLHLAAFVGHLEIVEVLLKAGADVNAKDYLGRTPLHIAAAKGHLEIVEVLLKAGADVNAQDKSGKTPADLAADAGHEDIVEVLQKLN
In assay [4], B5 came in with an EC50 of 202 pM. Compared with the last molecule, the EC50 is about 1.7-fold higher.

B6: DARPin® protein #38 (designed binder)
chain: MRGSHHHHHHGSDLGKKLLEAARAGQDDEVRELLKAGADVNAKDEVGRTPLHLAAQIGHLEIVEVLLKAGADVNAKNRWGVTPLHVAAWVGHLEIVEVLLKAGADVNAKDQQGATPLHLAAIRGHLEIVEVLLKAGADVNAQDKSGKTPADLAADAGHEDIAEVLQKLN
In assay [4], B6 showed an EC50 of 106 pM.

For the origin of these results see US20220242973A1 (Molecular Partners, published 2022).
